Reference: publication PMC3166367

Columns and labels:
[1] = target: dimeric (β15-44)2 fragment (β15-42 with Cys43 and Gly44 added, dimerized through Cys43); test: ELISA
[2] = target: VE-cad(3) fragment (residues Phe210-Phe325), third domain of the extracellular portion of VE-cadherin; test: SPR
[3] = target: VE-cadherin (Homo sapiens) (UniProt P33151); test: SPR; settings: cited from earlier work
Chain of VE-cadherin (Homo sapiens) (P33151 48-599): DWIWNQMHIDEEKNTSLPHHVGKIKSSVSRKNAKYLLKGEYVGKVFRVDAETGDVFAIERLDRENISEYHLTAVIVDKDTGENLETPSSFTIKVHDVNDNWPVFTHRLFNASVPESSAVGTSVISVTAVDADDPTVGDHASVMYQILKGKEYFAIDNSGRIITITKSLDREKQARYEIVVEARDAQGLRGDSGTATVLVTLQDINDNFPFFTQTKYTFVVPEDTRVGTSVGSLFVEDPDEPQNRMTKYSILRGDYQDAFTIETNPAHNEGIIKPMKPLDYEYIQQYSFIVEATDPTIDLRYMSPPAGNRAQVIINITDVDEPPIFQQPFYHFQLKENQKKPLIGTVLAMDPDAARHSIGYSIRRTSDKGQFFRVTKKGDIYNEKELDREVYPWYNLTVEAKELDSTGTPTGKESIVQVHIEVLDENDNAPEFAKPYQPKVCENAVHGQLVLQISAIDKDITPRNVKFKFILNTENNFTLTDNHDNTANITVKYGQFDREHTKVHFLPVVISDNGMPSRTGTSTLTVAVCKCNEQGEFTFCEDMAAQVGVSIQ

Substance “VE-cad(3) fragment (residues Phe210-Phe325), third domain of the extracellular portion of VE-cadherin (domain or fragment)” has a Kd [1] of 146 nM.

In the case of “dimeric (β15-44)2 fragment (β15-42 with Cys43 and Gly44 added, dimerized through Cys43) (peptide)”, the Kd [2] is reported as 715 nM.

In the case of “fibrin fragment (β15-66)2 15-66 (from UniProt P02675)”, the Kd [3] is listed as 80 nM.
